Laboratory results published in patent publication US20140087995A1 (published 2014).
Numbered stars: 1 amine (or outer) side, 2 acyl side, 3 side chain; on linkers, the order of the positions; unused ones are H or OH. Bridge positions count the residues as written; N and C are the ends. * marks the point of attachment. C20 diacid = O=C(O)CCCCCCCCCCCCCCCCCCC(=O)*; γGlu = O=C(O)[C@H](CCC(=O)[*:2])N[*:1]

Experiments:
rat calcitonin receptor [1] = biological target: T1, rat calcitonin receptor (rat, UniProt P32214 25-516); test: ratio IC50 rat calcitonin receptor / IC50 rat amylin receptor (reference)
T1 construct: whole, on cells; Membranes of transiently transfected BHK tk'ts 13 cells (Assay VIII); also called rCTR
T1 sequence (looked up): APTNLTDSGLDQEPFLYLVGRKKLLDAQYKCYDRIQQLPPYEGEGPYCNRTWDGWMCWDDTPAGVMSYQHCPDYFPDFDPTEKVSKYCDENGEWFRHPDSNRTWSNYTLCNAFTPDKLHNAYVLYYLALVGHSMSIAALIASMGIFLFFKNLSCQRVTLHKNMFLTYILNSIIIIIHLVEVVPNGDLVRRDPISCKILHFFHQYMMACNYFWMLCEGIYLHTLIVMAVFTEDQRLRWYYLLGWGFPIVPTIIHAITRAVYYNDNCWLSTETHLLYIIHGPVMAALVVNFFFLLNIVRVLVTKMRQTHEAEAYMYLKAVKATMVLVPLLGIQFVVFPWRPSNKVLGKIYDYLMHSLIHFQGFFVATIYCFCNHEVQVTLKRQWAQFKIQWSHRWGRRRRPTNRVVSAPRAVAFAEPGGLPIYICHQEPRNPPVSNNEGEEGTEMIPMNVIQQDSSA

[2] = biological target: T2, rat amylin receptor (rat calcitonin receptor + rat RAMP 3) (rat, UniProt P32214 25-516; Q9JJ73 23-147); test: SPA competition with 125I-rat amylin, membranes of BHK cells with rat calcitonin receptor + rat RAMP3 (Assay VI)
T2 construct: whole, on cells; Membranes of transiently transfected BHK tk'ts 13 cells (Assay VI); also called rAmylin-R; rat amylin 3(a) receptor
T2 sequence (looked up) 1: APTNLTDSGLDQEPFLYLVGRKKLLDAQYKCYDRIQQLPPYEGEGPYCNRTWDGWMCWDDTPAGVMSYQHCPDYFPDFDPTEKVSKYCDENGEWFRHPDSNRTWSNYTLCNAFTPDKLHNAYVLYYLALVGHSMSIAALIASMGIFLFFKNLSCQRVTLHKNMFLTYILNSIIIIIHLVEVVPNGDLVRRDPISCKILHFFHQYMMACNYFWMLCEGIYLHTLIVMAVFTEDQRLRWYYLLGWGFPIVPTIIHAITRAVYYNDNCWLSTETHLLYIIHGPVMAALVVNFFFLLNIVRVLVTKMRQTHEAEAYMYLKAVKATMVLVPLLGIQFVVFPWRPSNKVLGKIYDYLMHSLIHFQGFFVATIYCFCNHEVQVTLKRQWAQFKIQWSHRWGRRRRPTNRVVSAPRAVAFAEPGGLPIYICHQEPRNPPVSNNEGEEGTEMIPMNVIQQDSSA
T2 sequence (looked up) 2: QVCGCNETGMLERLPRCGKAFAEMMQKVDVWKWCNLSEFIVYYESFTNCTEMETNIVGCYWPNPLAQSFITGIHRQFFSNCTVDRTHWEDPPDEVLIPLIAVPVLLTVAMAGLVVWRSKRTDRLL

[3] = biological target: T3, human calcitonin receptor (human, UniProt P30988 25-474); test: ratio IC50 human calcitonin receptor / IC50 human amylin receptor (reference)
T3 construct: whole, on cells; Membranes of a stably transfected BHK cell line (Assay VII); also called hCTR; hCT
T3 sequence (looked up): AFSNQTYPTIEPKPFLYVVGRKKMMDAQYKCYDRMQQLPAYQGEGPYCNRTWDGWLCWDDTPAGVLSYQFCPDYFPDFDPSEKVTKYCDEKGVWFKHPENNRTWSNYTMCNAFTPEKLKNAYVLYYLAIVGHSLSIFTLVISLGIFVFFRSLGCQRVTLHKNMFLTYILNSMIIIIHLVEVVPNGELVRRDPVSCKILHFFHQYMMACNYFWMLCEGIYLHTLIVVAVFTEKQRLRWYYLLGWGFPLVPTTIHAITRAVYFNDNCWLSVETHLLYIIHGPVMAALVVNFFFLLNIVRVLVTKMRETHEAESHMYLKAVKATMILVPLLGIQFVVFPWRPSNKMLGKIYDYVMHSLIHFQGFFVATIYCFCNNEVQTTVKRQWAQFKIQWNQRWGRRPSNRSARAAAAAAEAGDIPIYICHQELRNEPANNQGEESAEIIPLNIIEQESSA
Outline: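 Competition binding by SPA uses membrane preparations (35 ng/μL final) in pH 7.4 Hepes buffer with 1 mM CaCl2 and 5 mM MgCl₂. Incubation lasts 120 min at 25° C, and IC₅₀ comes from one-site fitting.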

rat calcitonin receptor [4] = biological target: T1, rat calcitonin receptor; test: SPA competition with 125I-calcitonin, membranes of BHK cells with rat calcitonin receptor (Assay VIII)

B1: N^-1-[(4S)-4-carboxy-4-(19-carboxynonadecanoylamino)butanoyl]-Gly[Arg1,His14,Arg17,Pro21,Pro27,Pro34]-h-amylin (peptide)
peptide: {C20 diacid-γGlu}-GRCNTATCATQRLAHFLRHSSPNFGAIPSSTNVGPNTY-NH2
modifications: disulfide 3-8
SMILES: CC[C@H](C)[C@H](NC(=O)[C@H](C)NC(=O)CNC(=O)[C@H](Cc1ccccc1)NC(=O)[C@H](CC(N)=O)NC(=O)[C@@H]1CCCN1C(=O)[C@H](CO)NC(=O)[C@H](CO)NC(=O)[C@H](Cc1c[nH]cn1)NC(=O)[C@H](CCCNC(=N)N)NC(=O)[C@H](CC(C)C)NC(=O)[C@H](Cc1ccccc1)NC(=O)[C@H](Cc1c[nH]cn1)NC(=O)[C@H](C)NC(=O)[C@H](CC(C)C)NC(=O)[C@H](CCCNC(=N)N)NC(=O)[C@H](CCC(N)=O)NC(=O)[C@@H](NC(=O)[C@H](C)NC(=O)[C@@H]1CSSC[C@H](NC(=O)[C@H](CCCNC(=N)N)NC(=O)CNC(=O)CC[C@H](NC(=O)CCCCCCCCCCCCCCCCCCC(=O)O)C(=O)O)C(=O)N[C@@H](CC(N)=O)C(=O)N[C@@H]([C@@H](C)O)C(=O)N[C@@H](C)C(=O)N[C@@H]([C@@H](C)O)C(=O)N1)[C@@H](C)O)C(=O)N1CCC[C@H]1C(=O)N[C@@H](CO)C(=O)N[C@@H](CO)C(=O)N[C@H](C(=O)N[C@@H](CC(N)=O)C(=O)N[C@H](C(=O)NCC(=O)N1CCC[C@H]1C(=O)N[C@@H](CC(N)=O)C(=O)N[C@H](C(=O)N[C@@H](Cc1ccc(O)cc1)C(N)=O)[C@@H](C)O)C(C)C)[C@@H](C)O
Question: B1 was tested. Which “Ratio rCT/rAmylin binding” value (rat calcitonin receptor [1]) did it give?
Answer: The value was 97.7.

Question: What about the IC50 [2] of the same binder?
Answer: The IC50 was 0.674 nM.

Question: What about the “Ratio hCT/hAmylin binding” value [3] of the same binder?
Answer: Its value is 36.2.

Question: What about the IC50 (rat calcitonin receptor [4]) of the same binder?
Answer: Its IC50 is 65.9 nM.
